According to the supplement of paper PMC10201428:
± gives the standard deviation of the averaged measurements.

Assays:
[1] = tested on: VchCAST RNA-guided transposition machinery (E. coli BL21(DE3) host, lacZ target); test: relative integration efficiency (T-LR orientation) vs wild-type transposon end (log2 (normalized fold change)); transposon end mutated: right end (5 bp flank + 75 bp right end); higher = more efficient transposition
In short: (§1)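 In E. coli BL21(DE3), a T7-driven effector plasmid was paired with a pUC57 mini-transposon donor containing 1549 left-end or 1849 right-end barcoded transposon variants. Cells grew on plates with 0.1 mM IPTG at 37°C for 18 h. Relative integration efficiency was derived from Illumina reads of genomic integration junctions against input plasmids, as a log-transformed output/input barcode fold change normalised to reference barcodes.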

[2] = tested on: VchCAST RNA-guided transposition machinery (E. coli BL21(DE3) host, lacZ target); test: relative integration efficiency (T-RL orientation) vs wild-type transposon end (log2 (normalized fold change)); transposon end mutated: right end (5 bp flank + 75 bp right end); higher = more efficient transposition
In short: as §1

Row | Sequence | relative integration efficiency (log2) [1] | relative integration efficiency (log2) [2]
1 | ACATTTGTTGATACAACCATAAAATGATAATTACACCCATAAATTGATAATTATCACACCCATAAATTGATATTGCCTCTAAAGTGTACAACACTTGAGAAAGTTTACTACAGGTATGCACCGACAC | 0.483 ± 0.017 | -0.293 ± 0.28
2 | ACATTTGTTGATACAACCATAAAATGATAATTACACCCATAAATTGATAATTATCACACCCATAAATTGATATTGCCTCTACATGAATTCAAAGTTATGTAATATAGTACTATGTACGCACCGACAC | 0.172 ± 0.19 | -0.373 ± 0.31
3 | ACATTTGTTGATACAACCATAAAATGATAATTACACCCATAAATTGATAATTATCACACCCATAAATTGATATTGCCTCTAGCTTGATCTACATTGGATTGCCATTCTCTCACAGTAGCACCGACAC | 0.213 ± 0.1 | 0.0681 ± 0.22
4 | ACATTTGTTGATACAACCATAAAATGATAATTACACCCATAAATTGATAATTATCACACCCATAAATTGATATTGCCTCTATGTACACTGATGAGTTATTACACCTCAAGTTCAATGGCACCGACAC | -0.281 ± 0.31 | -0.228 ± 0.28
5 | ACATTTGTTGATACAACCATAAAATGATAATTACACCCATAAATTGATAATTATCACACCCATAAATTGATATTGCCTCTCAACCATAAAATGATAATTAGATCATAGTCAGACCAAGCACCGACAC | 0.308 ± 0.018 | -0.0518 ± 0.26
6 | ACATTTGTTGATACAACCATAAAATGATAATTACACCCATAAATTGATAATTATCACACCCATAAATTGATATTGCCTCTCAGACCACATAGCTGCCATGTCCTGATCGGACGGACCGCACCGACAC | 0.624 ± 0.19 | 0.787 ± 0.22
7 | ACATTTGTTGATACAACCATAAAATGATAATTACACCCATAAATTGATAATTATCACACCCATAAATTGATATTGCCTCTCCGACCCGGAAGAGGGCGCCTAGAATTGGGAGTGGTCGCACCGACAC | 0.134 ± 0.075 | 0.139 ± 0.13
8 | ACATTTGTTGATACAACCATAAAATGATAATTACACCCATAAATTGATAATTATCACACCCATAAATTGATATTGCCTCTCGCGAGAGGCCGGCAGCCGTCTGGCGTCGGGTGGCGGGCACCGACAC | 0.646 ± 0.53 | 0.713 ± 0.16
9 | ACATTTGTTGATACAACCATAAAATGATAATTACACCCATAAATTGATAATTATCACACCCATAAATTGATATTGCCTCTGACAACCATAAAATGATAATTATCATAGTCAGACCAAGCACCGACAC | -0.0996 ± 0.32 | -0.213 ± 0.28
10 | ACATTTGTTGATACAACCATAAAATGATAATTACACCCATAAATTGATAATTATCACACCCATAAATTGATATTGCCTCTGACTTAAACAAAATATATCTTGCCCGCCTTACAAATAGCACCGACAC | 0.774 ± 0.22 | 0.417 ± 0.32
11 | ACATTTGTTGATACAACCATAAAATGATAATTACACCCATAAATTGATAATTATCACACCCATAAATTGATATTGCCTCTGATAACTTCGTATAAAGTATCCTATACGAAGTTATTCGCACCGACAC | 0.85 ± 0.066 | -0.255 ± 0.26
12 | ACATTTGTTGATACAACCATAAAATGATAATTACACCCATAAATTGATAATTATCACACCCATAAATTGATATTGCCTCTGATAACTTCGTATAAGGTATACTATACGAAGTTATTCGCACCGACAC | 1.55 ± 0.38 | -0.433 ± 0.28
13 | ACATTTGTTGATACAACCATAAAATGATAATTACACCCATAAATTGATAATTATCACACCCATAAATTGATATTGCCTCTGATAACTTCGTATAATGTATACTATACGAAGTTATTCGCACCGACAC | 1.63 ± 0.07 | -1.3 ± 0.39
14 | ACATTTGTTGATACAACCATAAAATGATAATTACACCCATAAATTGATAATTATCACACCCATAAATTGATATTGCCTCTGATAACTTCGTATAATGTATCGTATACGAACGGTATCGCACCGACAC | -0.264 ± 0.53 | -0.379 ± 0.29
15 | ACATTTGTTGATACAACCATAAAATGATAATTACACCCATAAATTGATAATTATCACACCCATAAATTGATATTGCCTCTGATAACTTCGTATAATGTATGCTATACGAAGTTATTCGCACCGACAC | 0.719 ± 0.031 | -0.484 ± 0.19
16 | ACATTTGTTGATACAACCATAAAATGATAATTACACCCATAAATTGATAATTATCACACCCATAAATTGATATTGCCTCTGATAACTTCGTATAGCATACATTATACGAAGTTATTCGCACCGACAC | 2.48 ± 0.26 | -3.13 ± 0.076
17 | ACATTTGTTGATACAACCATAAAATGATAATTACACCCATAAATTGATAATTATCACACCCATAAATTGATATTGCCTCTGATAACTTCGTATAGGATACTTTATACGAAGTTATTCGCACCGACAC | 1.19 ± 0.28 | -0.663 ± 0.27
